Drawing on US20210122818A1 (BIOUNIVERSA S R L, published 2021), this text covers Kd for 1 molecule.

This experiment has as its target T1, recombinant BAG3 full-length protein (UniProt O95817 2-575, limits assumed).
T1 construct: mature; also called rBAG3; E. Coli rBAG3
Briefly: method for the murine antibody not stated (Example 3, Octet). Background: In BLI a coated tip is dipped into the sample, and binding shifts an interference pattern.

T1 sequence (O95817 2-575 limits assumed): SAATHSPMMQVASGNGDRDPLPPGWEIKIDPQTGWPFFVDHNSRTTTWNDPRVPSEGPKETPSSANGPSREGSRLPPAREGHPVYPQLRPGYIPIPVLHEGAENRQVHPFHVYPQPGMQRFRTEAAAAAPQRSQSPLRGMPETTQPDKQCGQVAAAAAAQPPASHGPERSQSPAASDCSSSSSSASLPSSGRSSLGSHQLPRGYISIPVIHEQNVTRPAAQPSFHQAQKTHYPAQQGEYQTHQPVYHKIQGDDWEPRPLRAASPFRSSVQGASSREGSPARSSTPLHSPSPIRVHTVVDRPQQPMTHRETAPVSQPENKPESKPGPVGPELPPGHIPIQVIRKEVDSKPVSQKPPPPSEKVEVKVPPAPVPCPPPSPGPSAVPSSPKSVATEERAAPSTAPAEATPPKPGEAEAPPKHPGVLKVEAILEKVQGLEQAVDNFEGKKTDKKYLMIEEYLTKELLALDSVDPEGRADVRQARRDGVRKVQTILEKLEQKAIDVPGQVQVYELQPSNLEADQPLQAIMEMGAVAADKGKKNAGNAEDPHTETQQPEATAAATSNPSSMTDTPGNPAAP

B1: AC-2 murine antibody (antibody, V domains shown)
VH: EVQLQQSGAELVKPGASVKLSCTASGFNIKDTYMYWVKQRPEQGLEWIGGVDPANGNTRYDPKFQGKATLTADTSSSTAYLQLSSLTSEDTAVYYCGRDGAMDYWGQGTSVTVSS
VL: DIVMSQSPSSLAVSVGEKVTMSCKSSQSLLYSSNQKNYLAWHQQKPGQSPKLLIYWASTRESGVPDRFTGSGSGTDFTLTISSVKAEDLAIYYCQQYYTYPLTFGAGTKLELK
notes: Murine hybridoma antibody; also called anti-BAG3 mouse antibody (AC2); murine anti-BAG AC-2 antibody
A word on the Kd: it is the free concentration of one partner at which half of the binding sites on the other are occupied at equilibrium, for simple one-to-one binding. For B1, the Kd stood at 1 pM.
